Source: US9273140B2, “Antibody for detecting DNA damage in cells utilizing cell membrane surface antigen Ly6D” (FUJITA HEALTH UNIVERSITY, priority 2012, dated 2016)

Key:
[1] = test system: LY6D expression on the surfaces of MCF10A cells; test: LY6D expression in MCF10A cells incubated with DNA-damaging stressors, by FCM; format: cell-based; conditions: contact with DNA-damaging stressor (MMC 300 nM; hydroxyurea 2 mM), FIG. 4
Description: MCF10A cells were incubated with DNA-damaging stressor (MMC: 300 nM), carboplatin, hydroxyurea (2 mM), or aphidicolin and relative LY6D expression was determined by FCM.
After the growth to confluence, the cells were irradiated at 10Gy (3 mA/50 kV) in cabinet-type X-ray apparatus (SOFRON, soft X-ray inversion system). At a desired timing after irradiation, the cells were harvested.
The FCM analysis was carried out according to the method reported previously (Kurosawa et al., 2009, Immunol. Meth. 351: 1-12). Reactivity of the obtained anti-Ly6D antibodies was examined using the Ly6D expression cell line, namely A431™ (cell line human squamous carcinoma) (CML ATCC CCL-243). The A431 cells were recovered by centrifugation. The recovered cells were washed once with PBS and then suspended in FACS Buffer (PBS containing 1% BSA, 2 mM EDTA, and 0.1% NaN3) to result in 1×10^6 cells/mL. The cell suspension (100 μL) was dispensed on a 96-well V-bottomed plate (Costar 3897). The Ly6D antibodies were adjusted to a concentration of 0.02 to 2 μg/mL using FACS Buffer. The prepared antibody solution (100 μL) was added to the cells, followed by incubation at 4° C. for 1 hour. The cells were washed twice with FACS buffer. Then, 100 μL of ALEXAFLUOR-anti-human IgG™ (fluorescent antibody) (Invitrogen) diluted 750-fold with FACS Buffer was added to the cells, followed by another incubation at 4° C. for 1 hour. The cells were washed with FACS Buffer twice by centrifugation and set in HTS of FACS Calibur (BD) for measurement of FL1 fluorescence intensity of each well.
It is well known that X-ray irradiation causes damage to DNA, which results in DNA double-strand breaks. A variety of chemical reagents also cause DNA damage stress in cells. Therefore, the influence of camptothecin (CPT) on the LY6D expression in MCF10A cells was examined. […] Therefore, the induction of LY6D expression on the surfaces of MCF10A cells was confirmed to be a common phenomenon due to DNA damage stress.

LY6D expression = conditions: Rubinfeld et al., 2006; cited from earlier work
MCF10A cells = test: Selection of monoclonal antibodies by cell ELISA, FCM and confocal laser microscopy on X-ray-irradiated and non-irradiated cells; format: binding
Description: X-ray-irradiated MCF10A cells (black bars) and non-irradiated MCF10A cells (gray bars) were subjected to ELISA using six monoclonal antibodies (A: cell ELISA). X-ray-irradiated cells (pink) and non-irradiated cells (green) were incubated with six monoclonal antibodies and subjected to FCM, and non-irradiated cells incubated with PBS were used as a negative control (purple) (B: FCM). X-ray-irradiated cells and non-irradiated cells were stained with the E33-139 monoclonal antibody (green) and DAPI (blue), respectively, and examined using a confocal laser microscope (C: immunofluorescence confocal laser microscopy).
X-ray-irradiated cells and non-irradiated cells were prepared, and antibodies specific to the irradiated cells were screened for by cell ELISA. That is, reactivity of antibody to both cells was examined by ELISA. A blocking solution (5% skim milk/0.05% NaN3/PBS) was added at 200 μL/well to both cells, followed by blocking at 37° C. for 2 hours. The blocking solution was removed and the cells were washed with PBS. The supernatant of the above antibody expression culture was added at 100 μL/well, followed by reaction at 37° C. for 1 hour. The resultant was washed five times with PBS. Rabbit anti-cp3 (1 μg/mL) diluted with PBS/0.05% Tween 20 was added at 100 μL/well, followed by reaction at 37° C. for 1 hour. The resultant was washed five times with PBS. Anti-Rabbit IgG (H+L)-HRP diluted 2000-fold with PBS/0.05% Tween 20 was further added at 100 μL/well, followed by reaction at 37° C. for 1 hour. The resultant was washed five times with PBS. […] Then, the absorbance at 492 nm was measured by SPECTRAmax340PC (Molecular Devices). Antibodies showing obvious positive reactivity specific to only the irradiated cells were selected and DNA sequences of the phages were analyzed. […]
The FCM analysis was carried out according to the method reported previously (Kurosawa et al., 2009, Immunol. Meth. 351: 1-12). […] The cells were washed with FACS Buffer twice by centrifugation and set in HTS of FACS Calibur (BD) for measurement of FL1 fluorescence intensity of each well. […]

LY6D = target: T1, LY6D (Homo sapiens, UniProt Q14210); test: Immunoprecipitation, western blot and mass spectrometry to identify the antigen recognized by the antibody; format: binding; conditions: for 14 kDa band in western blot of immunoprecipitate: FIG. 2A
T1 construct: LY6D was identified by the precipitate derived from the X-ray-irradiated cells; endogenous in cells; host or cells: MCF10A cells (X-ray-irradiated and non-irradiated); FaDu cells
T1 sequence (Q14210 21-98 limits assumed): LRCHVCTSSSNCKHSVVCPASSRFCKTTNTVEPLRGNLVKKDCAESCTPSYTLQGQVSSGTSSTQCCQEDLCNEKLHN
Description: After biotinylation, the membrane proteins of the X-ray-irradiated MCF10A cells (right) and non-irradiated MCF10A cells (left) were solubilized and subjected to immunoprecipitation using the E33-139 monoclonal antibody, the product was separated by SDS-PAGE, and western blot was performed with HRP-conjugated streptavidin (A: western blot). MCF10A cells treated as described above were digested with PI-PLC, the resultant was centrifuged, and cell pellets (P) and the supernatant (S) subjected to PI-PLC treatment were separately immunoprecipitated (B: western blot). FaDu cells were treated with LY6D siRNA or control siRNA and analyzed by FCM using the E33-139 monoclonal antibody (black line: control siRNA and the E33-139 monoclonal antibody; dashed line: LY6D siRNA and the E33-139 monoclonal antibody; gray: control siRNA without the E33-139 monoclonal antibody (C: FCM). The experiment shown in FIG. 2B was carried out using FaDu cells (D: western blot). Solubilized FaDu cells were subjected to IP using the E33-139 monoclonal antibody and the product was separated by SDS-PAGE (left: western blot using anti-hLY6D Ab (polyclonal Ab, commercial product); right: silver stained gel) (E: western blot).
Conditions of immunoprecipitation were set as previously reported (Kurosawa et al., 2009, J. Immunol. Meth. 351: 1-12). […] The concentrate was analyzed by LC/MS.
Immunoprecipitation (IP) was performed to identify an antigen recognized by the E33-139 antibody. […] They were determined to be detected in precipitates in a nonspecific manner because they are abundant in the cytoplasm. […] Therefore, LY6D was determined to be a promising candidate as an antigen recognized by E33-139.
It has been reported that LY6D is abundantly expressed in a large amount in squamous cell carcinoma of head and neck (Quak et al., 1990, Am. J. Pathol. 136: 191-197). […] Before digestion with PI-PLC, a 14-kDa band was detected by the western blot method. […] The resulting blots were detected using a commercially available anti-human LY6D antibody. […]

Molecule: C[C@@]1(CO)[C@H](O)CC[C@@]2(C)[C@H]1CC[C@H]1C[C@@H]3C[C@@]12CC[C@]3(O)CO [aphidicolin]
- LY6D expression on the surfaces of MCF10A cells [1]: induced

Molecule: N.N.O=C([O-])C1(C(=O)[O-])CCC1.[Pt+2] [carboplatin]
- LY6D expression on the surfaces of MCF10A cells [1]: induced

Molecule: NC(=O)NO [hydroxyurea]
- LY6D expression on the surfaces of MCF10A cells [1]: induced

Molecule: CCc1c2c(nc3ccc(OC(=O)N4CCC(N5CCCCC5)CC4)cc13)-c1cc3c(c(=O)n1C2)COC(=O)[C@]3(O)CC [irinotecan]
- LY6D expression after chemotherapy treatment (LY6D expression): significantly enhanced

Molecule: CO[C@@]12[C@H](COC(N)=O)C3=C(C(=O)C(C)=C(N)C3=O)N1C[C@@H]1N[C@@H]12 [mitomycin C]
- LY6D expression on the surfaces of MCF10A cells [1]: induced

B1: E33-139: human phage antibody (scFv) against LY6D; sequence SEQ ID NOS: 1 and 2, CDRs SEQ ID NOS: 3 to 8 (protein)
scFv: MAEVQLVESGGGLVQPGRSLRLSCAASGFTFDDYAMHWVRQAPGKGLEWVSGISWNSGSIGYADSVKGRFTISRDNAKNSLYLQMNSLRAEDTALYYCAKTGILDAFDIWGQGTTVTVSRGGGGSGGGGSGGGGSMAQSVLTQPPSVSGAPRQTVTISCSGSSSNIGQNSVTWYQRLPGEAPKLLIYYDDLLHSGVSDRFSGSKSGTSASLAISGLQSEDEAEYYCASWDDSLKGPVFGGGTKLTVLGQPKAAPSVTLFPPSSEELQANKATLVCLISDFYPGAVTVAWKADSSPVKAGVETTTPSKQSNNKYAASSYLSLTPEQWKSHKSYSCQVTHEGSTVEKTVAPTECSAR
modifications: human
- reactivity to MCF10A cells after X-ray irradiation (MCF10A cells; X-ray-irradiated MCF10A cells (10Gy)): increased reactivity
- binding to molecules on the surfaces of X-ray-irradiated cells, confocal laser microscope analysis (MCF10A cells; X-ray-irradiated MCF10A cells, FIG. 1C): consistently and strongly binds
- reactivity to MCF10A cells before X-ray irradiation (MCF10A cells; non-irradiated MCF10A cells): no reactivity
- antigen recognized by the antibody (LY6D; IP, MS, PI-PLC, siRNA and anti-human LY6D western blot): antigen protein 139 is LY6D
- 14 kDa band in western blot of immunoprecipitate (LY6D; samples from X-ray-irradiated MCF10A cells): a prominent band was observed
- 14 kDa band in western blot of immunoprecipitate (LY6D; samples from non-irradiated MCF10A cells): slightly observed
